Laboratory results: the supplement of paper PMC11246515
± gives the standard deviation of the averaged measurements.

Test: total protein half-life in vivo (active degradation + dilution); higher = more stable protein
[1] = E. coli NCM3722 delta-clpP delta-lon delta-hslV, growth: N-lim chemostat, doubling time 6 h
[2] = E. coli NCM3722 delta-clpP, growth: N-lim chemostat, doubling time 6 h
[3] = E. coli NCM3722 delta-hslV, growth: N-lim chemostat, doubling time 6 h
[4] = E. coli NCM3722 delta-lon, growth: N-lim chemostat, doubling time 6 h
[5] = E. coli NCM3722 delta-smpB, growth: N-lim chemostat, doubling time 6 h
[6] = wild type E. coli NCM3722, growth: C-lim chemostat, doubling time 3 h
[7] = wild type E. coli NCM3722, growth: C-lim chemostat, doubling time 6 h
[8] = wild type E. coli NCM3722, growth: C-lim chemostat, doubling time 12 h
[9] = wild type E. coli NCM3722, growth: N-lim chemostat, doubling time 6 h
[10] = wild type E. coli NCM3722, growth: N-lim chemostat, doubling time 12 h
[11] = wild type E. coli NCM3722, growth: P-lim chemostat, doubling time 6 h
[12] = wild type E. coli NCM3722, growth: P-lim chemostat, doubling time 12 h

Row | Sequence | total protein half-life in vivo [1] | total protein half-life in vivo [2] | total protein half-life in vivo [3] | total protein half-life in vivo [4] | total protein half-life in vivo [5] | total protein half-life in vivo [6] | total protein half-life in vivo [7] | total protein half-life in vivo [8] | total protein half-life in vivo [9] | total protein half-life in vivo [10] | total protein half-life in vivo [11] | total protein half-life in vivo [12]
1 | MEAIKGSDVNVPDAVFAWMLDGRGGVKPLENTDVIDEAHPCWLHLNYVHHDSAQWLATTPLLPNNVRDALAGESTRPRVSRLGEGTLITLRCINGSTDERPDQLVAMRVYMDGRLIVSTRQRKVLALDDVVSDLEEGTGPTDCGGWLVDVCDALTDHSSEFIEQLHDKIIDLEDNLLDQQIPPRGFLALLRKQLIVMRRYMAPQRDVYARLASERLPWMSDDQRRRMQDIADRLGRGLDEIDACIARTGVMADEIAQVMQENLARRTYTMSLMAMVFLPSTFLTGLFGVNLGGIPGGGWQFGFSIFCILLVVLIGGVALWLHRSKWL | 6.29 ± 0.86 h | 5.99 ± 0.61 h | 5.56 ± 0.95 h | 6.34 ± 0.75 h | 5.71 ± 0.2 h | 3.06 ± 0.47 h | 6.04 ± 0.35 h | 11.5 ± 0.33 h | 6.07 ± 0.2 h | 11.9 ± 0.9 h | 5.31 ± 0.072 h | 8.98 ± 0.42 h
2 | MEALLQLKGIDKAFPGVKALSGAALNVYPGRVMALVGENGAGKSTMMKVLTGIYTRDAGTLLWLGKETTFTGPKSSQEAGIGIIHQELNLIPQLTIAENIFLGREFVNRFGKIDWKTMYAEADKLLAKLNLRFKSDKLVGDLSIGDQQMVEIAKVLSFESKVIIMDEPTDALTDTETESLFRVIRELKSQGRGIVYISHRMKEIFEICDDVTVFRDGQFIAEREVASLTEDSLIEMMVGRKLEDQYPHLDKAPGDIRLKVDNLCGPGVNDVSFTLRKGEILGVSGLMGAGRTELMKVLYGALPRTSGYVTLDGHEVVTRSPQDGLANGIVYISEDRKRDGLVLGMSVKENMSLTALRYFSRAGGSLKHADEQQAVSDFIRLFNVKTPSMEQAIGLLSGGNQQKVAIARGLMTRPKVLILDEPTRGVDVGAKKEIYQLINQFKADGLSIILVSSEMPEVLGMSDRIIVMHEGHLSGEFTREQATQEVLMAAAVGKLNRVNQE | 6.58 ± 1.1 h | 5.992 ± 0.012 h | 6.14 ± 0.13 h | 5.71 ± 0.28 h | 5.878 ± 0.015 h | 3.11 ± 0.17 h | 6.04 ± 0.086 h | 11.3 ± 2.2 h | 5.96 ± 0.35 h | 12.7 ± 0.54 h | 6.499 ± 0.06 h | 12.2 ± 0.6 h
3 | MEFTTGLMSLDTALNEMLSRVTPLTAQETLPLVQCFGRILASDVVSPLDVPGFDNSAMDGYAVRLADIASGQPLPVAGKSFAGQPYHGEWPAGTCIRIMTGAPVPEGCEAVVMQEQTEQMDNGVRFTAEVRSGQNIRRRGEDISAGAVVFPAGTRLTTAELPVIASLGIAEVPVIRKVRVALFSTGDELQLPGQPLGDGQIYDTNRLAVHLMLEQLGCEVINLGIIRDDPHALRAAFIEADSQADVVISSGGVSVGEADYTKTILEELGEIAFWKLAIKPGKPFAFGKLSNSWFCGLPGNPVSATLTFYQLVQPLLAKLSGNTASGLPARQRVRTASRLKKTPGRLDFQRGVLQRNADGELEVTTTGHQGSHIFSSFSLGNCFIVLERDRGNVEVGEWVEVEPFNALFGGL | – | – | 4.41 ± 0.22 h | 4.63 ± 0.21 h | 4.88 ± 0.29 h | 2.741 ± 0.013 h | 4.96 ± 0.85 h | 11.1 ± 0.4 h | 4.07 ± 0.22 h | 7.4293 ± 0.003 h | 5.64 ± 0.34 h | 11.1 ± 1.6 h
4 | MEGSDFLLAGVLFLFAAVAAVPLASRLGIGAVLGYLLAGIAIGPWGLGFISDVDEILHFSELGVVFLMFIIGLELNPSKLWQLRRSIFGVGAAQVLLSAALLAGLLMLTDFAWQAAVVGGIGLAMSSTAMALQLMREKGMNRSESGQLGFSVLLFQDLAVIPALALVPLLAGSADEHFDWMKVGMKVLAFVGMLIGGRYLLRPVFRFIAASGVREVFTAATLLLVLGSALFMDALGLSMALGTFIAGVLLAESEYRHELETAIDPFKGLLLGLFFISVGMSLNLGVLYTHLLWVVISVVVLVAVKILVLYLLARLYGVRSSERMQFAGVLSQGGEFAFVLFSTASSQRLFQGDQMALLLVTVTLSMMTTPLLMKLVDKWLSRQFNGPEEEDEKPWVNDDKPQVIVVGFGRFGQVIGRLLMANKMRITVLERDISAVNLMRKYGYKVYYGDATQVDLLRSAGAEAAESIVITCNEPEDTMKLVEICQQHFPHLHILARARGRVEAHELLQAGVTQFSRETFSSALELGRKTLVTLGMHPHQAQRAQLHFRRLDMRMLRELIPMHADTVQISRAREARRELEEIFQREMQQERRQLDGWDEFE | 7.22 ± 0.56 h | – | – | 6.81 ± 1.1 h | 6.39 ± 1.5 h | – | 5.87 ± 0.17 h | – | 5.996 ± 0.021 h | 13.6 ± 2 h | 7.09 ± 1.1 h | –
5 | MEIIMRNLCFLLTLVATLLLPGRLIAAALPQDEKLITGQLDNGLRYMIYPHAHPKDQVNLWLQIHTGSLQEEDNELGVAHFVEHMMFNGTKTWPGNKVIETFESMGLRFGRDVNAYTSYDETVYQVSLPTTQKQNLQQVMAIFSEWSNAATFEKLEVDAERGVITEEWRAHQDAKWRTSQARRPFLLANTRNLDREPIGLMDTVATVTPAQLRQFYQRWYQPNNMTFIVVGDIDSKEALALIKDNLSKLPANKAAENRVWPTKAENHLRFNIINDKENRVNGIALYYRLPMVQVNDEQSFIEQAEWSMLVQLFNQRLQERIQSGELKTISGGTARSVKIAPDYQSLFFRVNARDDNMQDAANALMAELATIDQHGFSAEELDDVKSTRLTWLKNAVDQQAERDLRMLTSRLASSSLNNTPFLSPEETYQLSKRLWQQITVQSLAEKWQQLRKNQDAFWEQMVNNEVAAKKALSPAAILALEKEYANKKLAAYVFPGRNLSLTVDADPQAEISSKETLAENLTSLTLSNGARVILAKSAGEEQKLQIIAVSNKGDLSFPAQQKSLIALANKAVSGSGVGELSSSSLKRWSAENSVTMSSKVSGMNTLLSVSARTNNPEPGFQLINQRITHSTINDNIWASLQNAQIQALKTLDQRPAEKFAQQMYETRYADDRTKLLQENQIAQFTAADALAADRQLFSSPADITFVIVGNVAEDKLVALITRYLGSIKHSDSPLAAGKPLTRATDNASVTVKEQNEPVAQVSQWKRYDSRTPVNLPTRMALDAFNVALAKDLRVNIREQASGAYSVSSRLSVDPQAKDISHLLAFTCQPERHDELLTLANEVMVKRLAKGISEQELNEYQQNVQRSLDIQQRSVQQLANTIVNSLIQYDDPAAWTEQEQLLKQMTVENVNTAVKQYLSHPVNTYTGVLLPK | 4.62 ± 0.69 h | 5.77 ± 0.74 h | 4.77 ± 1.3 h | 5.5 h | 4.55 ± 0.17 h | 2.905 ± 0.0097 h | 5.9 ± 0.39 h | 10.2 ± 0.87 h | 5.41 ± 0.45 h | 9.96 ± 0.61 h | 4.84 ± 0.2 h | 9.3 ± 0.6 h
6 | MEISWGRALWRNFLGQSPDWYKLALIIFLIVNPLIFLISPFVAGWLLVAEFIFTLAMALKCYPLLPGGLLAIEAVFIGMTSAEHVREEVAANLEVLLLLMFMVAGIYFMKQLLLFIFTRLLLSIRSKMLLSLSFCVAAAFLSAFLDALTVVAVVISVAVGFYGIYHRVASSRTEDTDLQDDSHIDKHYKVVLEQFRGFLRSLMMHAGVGTALGGVMTMVGEPQNLIIAKAAGWHFGDFFLRMSPVTVPVLICGLLTCLLVEKLRWFGYGETLPEKVREVLQQFDDQSRHQRTRQDKIRLIVQAIIGVWLVTALALHLAEVGLIGLSVIILATSLTGVTDEHAIGKAFTESLPFTALLTVFFSVVAVIIDQQLFSPIIQFVLQASEHAQLSLFYIFNGLLSSISDNVFVGTIYINEAKAAMESGAITLKQYELLAVAINTGTNLPSVATPNGQAAFLFLLTSALAPLIRLSYGRMVWMALPYTLVLTLVGLLCVEFTLAPVTEWFMQMGWIATL [P0AFA7] | – | – | 6.59 ± 0.35 h | 6.07 ± 0.93 h | 6.4 ± 0.18 h | – | – | 13.8 ± 0.64 h | 5.91 ± 0.38 h | 11.2 ± 4.7 h | 6.58 ± 0.48 h | 12.8 ± 0.14 h
7 | MEIYENENDQVEAVKRFFAENGKALAVGVILGVGALIGWRYWNSHQVDSARSASLAYQNAVTAVSEGKPDSIPAAEKFAAENKNTYGALASLELAQQFVDKNELEKAAAQLQQGLADTSDENLKAVINLRLARVQVQLKQADAALKTLDTIKGEGWAAIVADLRGEALLSKGDKQGARSAWEAGVKSDVTPALSEMMQMKINNLSI | 5.43 ± 0.11 h | 5.4 ± 0.35 h | 5.99 ± 0.76 h | 6.64 ± 0.78 h | 5.52 ± 0.16 h | 2.83 ± 0.14 h | 4.7 ± 0.38 h | 10.3 ± 0.96 h | 5.8 ± 0.6 h | 11.9 ± 0.17 h | 4.55 ± 0.6 h | 8.84 ± 0.18 h
